The test addresses T1, recombinant HIV-1HXB2 gp41 (Vybion Inc.) (HIV-1 HXB2, UniProt P04578 541-682).
T1 construct: domain: gp41; Bought reagent; also called rgp41
The test can be described thus: ELISA, plate-bound recombinant HIV-1HXB2 gp41, serial dilutions of rCNID-1-Trx, detection with rabbit anti-CNID-1. For orientation: In an ELISA, binding on a coated surface is turned into a signal by an enzyme label.

B1: recombinant CNID-1 in fusion with thioredoxin (thioredoxin-hexahistidine-CNID-1) (other)
chain: GRATLGQLKTSTIPPVTFDVPFDGANIPQDVRFTIATVNGGKGALYNAELGESAGHTIVLESDGDHPIPGTFDPKSGRGLDYLPRGLVLFSSHNYVGNMKMYTEPDSDITADFPPGTPFGVSSAITGEGSAFQLNTGIDHTGEFEIIPPNTKRNLAGVFDNEIRSVSPTGGK
modifications: Europium label in the reference-protein ELISA only; otherwise none stated
notes: The N-terminal residue of native CNID-1 is sarcosine; also called rCNID-1-Trx; CNID-1-Trx; not shown: N-terminal thioredoxin (Trx) encoded by the Novagen pET32b(+) Trx fusion vector
Regarding B1, the binding result was “no binding”.

The values are drawn from patent publication US20160333060A1 (UNITED STATES OF AMERICA AS REPRESENTED BY THE SECRETARY …, published 2016).
